# Results as given in publication PMC2396416.
# T1: TFBb (Halobacterium sp. NRC-1, UniProt Q9HRE6 1-325)
# T1 sequence: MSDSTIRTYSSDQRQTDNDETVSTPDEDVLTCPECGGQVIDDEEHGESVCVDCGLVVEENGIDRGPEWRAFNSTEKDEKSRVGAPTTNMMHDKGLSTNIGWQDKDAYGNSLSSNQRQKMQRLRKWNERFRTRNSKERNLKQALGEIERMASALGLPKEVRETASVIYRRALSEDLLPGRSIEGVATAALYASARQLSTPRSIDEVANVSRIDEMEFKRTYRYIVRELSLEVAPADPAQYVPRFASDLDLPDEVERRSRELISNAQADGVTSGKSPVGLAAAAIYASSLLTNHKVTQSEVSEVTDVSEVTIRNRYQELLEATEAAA
# T2: TFBg (Halobacterium sp. NRC-1, UniProt Q9HSF7 1-323)
# T2 sequence: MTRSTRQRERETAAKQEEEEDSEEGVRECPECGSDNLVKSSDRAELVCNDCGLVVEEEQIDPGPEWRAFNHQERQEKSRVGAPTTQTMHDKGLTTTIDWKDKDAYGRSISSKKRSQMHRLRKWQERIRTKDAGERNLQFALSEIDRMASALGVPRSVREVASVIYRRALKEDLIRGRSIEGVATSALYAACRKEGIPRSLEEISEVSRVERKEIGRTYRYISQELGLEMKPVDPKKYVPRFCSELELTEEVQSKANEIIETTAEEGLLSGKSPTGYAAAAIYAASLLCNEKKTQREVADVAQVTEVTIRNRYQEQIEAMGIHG
# Key:
# TFBb = target: T1, TFBb; test: EMSA
# TFBg = target: T2, TFBg; test: EMSA
binder,measurement,setting,value
FM (BRE/TATA of Phsp5 replaced by Pbop) (dsDNA) DNA 1: GCGGGATCCTCGTAGAGTTACACGAAATGCGGACATAGTTTTGGCTGGAGTCAAGGCATATGAGT DNA 2: ACTCATATGCCTTGACTCCAGCCAAAACTATGTCCGCATTTCGTGTAACTCTACGAGGATCCCGC,binding result,TFBb,no binding
same,binding result,TFBg,no binding
